Target: VEGFR2 (Homo sapiens, UniProt P35968)
Assay: surface plasmon resonance (SPR) with BIACORE
Type: binding
Design: recombinant cytosolic domain of kinases (Fisher Scientific); purchased Fisher Scientific
Conditions: peptide on avidin-coated chip, recombinant cytosolic domain of kinase
Procedure: Additionally, the sequence of DUF2C5 is highly conserved in mammalian KIF13B. […] To further test the specificity of DUF2C5, pull-down of proteins was conducted using DUF2C5 or control peptide (CT23) immobilized on streptavidin beads followed by mass spec analysis of the binding proteins. This analysis detected the presence of KIF13B, VEGFR2, and co-receptor NRP1 (number of hits were 28, 11, and 5, respectively). Tie2, Par1, S1PR1, and FGFR were not found. Other cargo for KIF13B (e.g., CentA, hDlg) were also not found. […] The affinity of each receptor tyrosine kinase was subsequently tested via surface plasmon resonance (SPR) with BIACORE (UIC, RRC), using DUF2C5 and CT23 on an avidin-coated chip, and recombinant cytosolic domain of kinases (Fisher Scientific).

Sequence of VEGFR2 (P35968 786-1356 limits assumed, species assumed): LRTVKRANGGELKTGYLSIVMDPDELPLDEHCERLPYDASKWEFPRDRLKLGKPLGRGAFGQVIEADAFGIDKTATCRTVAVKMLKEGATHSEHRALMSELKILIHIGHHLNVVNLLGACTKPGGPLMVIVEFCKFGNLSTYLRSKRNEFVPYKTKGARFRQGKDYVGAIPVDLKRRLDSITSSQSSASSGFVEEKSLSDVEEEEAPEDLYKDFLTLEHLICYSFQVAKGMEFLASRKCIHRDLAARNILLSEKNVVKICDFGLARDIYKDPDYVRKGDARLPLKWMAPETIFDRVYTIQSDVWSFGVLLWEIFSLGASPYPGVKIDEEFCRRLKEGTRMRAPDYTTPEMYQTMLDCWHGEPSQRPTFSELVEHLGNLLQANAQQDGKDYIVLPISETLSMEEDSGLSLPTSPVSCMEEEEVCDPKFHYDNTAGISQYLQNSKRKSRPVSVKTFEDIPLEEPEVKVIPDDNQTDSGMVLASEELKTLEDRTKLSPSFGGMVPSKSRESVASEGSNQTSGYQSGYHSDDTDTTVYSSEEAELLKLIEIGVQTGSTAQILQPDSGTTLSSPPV

KD value, VEGFR2: did not bind
Substance: CT23: negative control, C-terminal 23-amino acid peptide, residues 1650 to 1672 of KIF13B (RVRASELRSFSRMLAGDPGCSPG)
